Data as given in article PMC7600800.

B1: HA-tagged p27 wild type, P46527 R30A; N31A; L32A (protein)
chain: MSNVRVSNGSPSLERMDARQAEHPKPSACAAAFGPVDHEELTRDLEKHCRDMEEASQRKWNFDFQNHKPLEGKYEWQEVEKGSLPEFYYRPPRPPKGACKVPAQESQDVSGSRPAAPLIGAPANSEDTHLVDPKTDPSDSQTGLAEQCAGIRKRPATDDSSTQNKRANRTEENVSDGSPNAGSVEQTPKKPGLRRRQT

Columns and labels:
Test in all cases: anti-HA immunoprecipitation, SDS-PAGE and mass spectrometry
[1] = biological target: regulator of chromosome condensation isoform c; conditions: lysates of transfected HEK293 cells; parent: -
[2] = biological target: heat shock-related 70 kDa protein 2; conditions: lysates of transfected HEK293 cells; parent: 14
ruvB-like 1 = conditions: lysates of transfected HEK293 cells; parent: 3
[3] = biological target: heat shock 70 kDa protein 1-like; conditions: lysates of transfected HEK293 cells; parent: 13
[4] = biological target: dnaJ homolog subfamily A member 1; conditions: lysates of transfected HEK293 cells; parent: 7
[5] = biological target: 78 kDa glucose-regulated protein precursor; conditions: lysates of transfected HEK293 cells; parent: 39
lamin-B1 isoform 1 = conditions: lysates of transfected HEK293 cells; parent: -
[6] = biological target: T1, 14-3-3, endogenous, P63104; conditions: chain shown with the change; lysates of transfected HEK293 cells; parent: -
T1 chain: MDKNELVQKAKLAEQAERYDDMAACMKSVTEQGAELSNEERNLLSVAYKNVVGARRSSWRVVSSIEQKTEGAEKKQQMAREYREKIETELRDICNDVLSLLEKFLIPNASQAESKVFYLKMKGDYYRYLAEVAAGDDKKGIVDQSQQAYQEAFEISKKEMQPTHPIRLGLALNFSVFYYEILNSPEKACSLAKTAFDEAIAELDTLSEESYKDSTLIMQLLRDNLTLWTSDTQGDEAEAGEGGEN

Molecule	other: number of unique peptides (unique peptides) [1]	other: number of unique peptides (unique peptides) [2]	other: number of unique peptides (unique peptides) (ruvB-like 1)	other: number of unique peptides (unique peptides) [3]	other: number of unique peptides (unique peptides) [4]	other: number of unique peptides (unique peptides) [5]	other: number of unique peptides (unique peptides) (lamin-B1 isoform 1)	other: number of unique peptides (unique peptides) [6]
HA-tagged p27 wild type (from UniProt P46527) R30A; N31A; L32A	2	6	2	12	4	34	3	
B1								4
